These results are taken from paper PMC5461201.

For assay [1], the target named is FLAG-ADAR1p110-T/S-to-A (phosphorylation inhibitory mutant) (human). Nature of the assay: pull-down.
The target of assay [2] is FLAG-ADAR1p110-T/S-to-D (phosphomimetic mutant) (human). The assay can be described thus: pull-down.

As for “Xpo5-RanGTP complex (His-Xpo5 with His-RanQ69L and GTP, preassembled with VARdm RNA) (from UniProt Q9HAV4 1-1204; P62826 1-216)”, the binding efficiency (judged from unbound His-Xpo5 in flow-through) in assay [1] is below 10%; in assay [2], 70%. In addition, the fold amount bound against ADAR1p110-T/S-to-A in assay [2] lay in the range of 10 to 20 fold.
